Data reported in patent publication EP1947117A2.

Experiments:
[1] = target: human TSH receptor on CHO cells (CHO-hTSHR clone JP09) (human) (UniProt P16473); assay: cell-based or functional assay
[2] = target: porcine TSH receptor (solubilized porcine thyroid membranes) (porcine) (UniProt Q8SPP9); assay: competitive displacement of 125I-bTSH from solubilized porcine thyroid membranes
[3] = target: hCG receptor on MA-10 cells (transformed murine Leydig cells) (murine) (UniProt P30730); assay: cell-based or functional assay
[4] = target: rat TSH receptor on FRTL-5 cells (rat) (UniProt P21463); assay: cell-based or functional assay
[5] = target: hCG receptor on MA-10 cells (transformed murine Leydig cells) (murine) (UniProt P30730); assay: 125I-hCG receptor binding assay on MA-10 cells (Fig. 3b)
[6] = target: porcine TSH receptor (solubilized porcine thyroid membranes) (porcine) (UniProt Q8SPP9); assay: competitive binding assay to porcine thyroid membranes

hCG receptor on MA-10 cells (transformed murine Leydig cells) (murine), sequence (P30730 27-700): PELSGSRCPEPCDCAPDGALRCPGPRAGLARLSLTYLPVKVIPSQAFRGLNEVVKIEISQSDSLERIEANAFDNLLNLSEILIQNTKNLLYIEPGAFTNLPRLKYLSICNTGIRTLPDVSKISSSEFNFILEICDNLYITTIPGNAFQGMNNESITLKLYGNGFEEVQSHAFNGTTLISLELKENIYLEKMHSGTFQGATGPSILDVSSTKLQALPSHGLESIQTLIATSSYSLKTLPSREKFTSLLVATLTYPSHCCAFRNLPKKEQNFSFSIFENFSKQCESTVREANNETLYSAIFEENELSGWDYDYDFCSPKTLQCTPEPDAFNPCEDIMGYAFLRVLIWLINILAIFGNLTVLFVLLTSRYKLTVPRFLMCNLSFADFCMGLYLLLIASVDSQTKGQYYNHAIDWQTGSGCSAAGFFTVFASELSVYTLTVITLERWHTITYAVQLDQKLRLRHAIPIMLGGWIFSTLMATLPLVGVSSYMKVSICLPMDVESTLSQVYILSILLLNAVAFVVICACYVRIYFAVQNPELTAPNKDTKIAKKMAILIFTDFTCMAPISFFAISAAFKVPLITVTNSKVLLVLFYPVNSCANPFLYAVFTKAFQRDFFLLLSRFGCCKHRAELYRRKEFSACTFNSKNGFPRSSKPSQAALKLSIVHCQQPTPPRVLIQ
porcine TSH receptor (solubilized porcine thyroid membranes) (porcine), sequence (Q8SPP9 22-764): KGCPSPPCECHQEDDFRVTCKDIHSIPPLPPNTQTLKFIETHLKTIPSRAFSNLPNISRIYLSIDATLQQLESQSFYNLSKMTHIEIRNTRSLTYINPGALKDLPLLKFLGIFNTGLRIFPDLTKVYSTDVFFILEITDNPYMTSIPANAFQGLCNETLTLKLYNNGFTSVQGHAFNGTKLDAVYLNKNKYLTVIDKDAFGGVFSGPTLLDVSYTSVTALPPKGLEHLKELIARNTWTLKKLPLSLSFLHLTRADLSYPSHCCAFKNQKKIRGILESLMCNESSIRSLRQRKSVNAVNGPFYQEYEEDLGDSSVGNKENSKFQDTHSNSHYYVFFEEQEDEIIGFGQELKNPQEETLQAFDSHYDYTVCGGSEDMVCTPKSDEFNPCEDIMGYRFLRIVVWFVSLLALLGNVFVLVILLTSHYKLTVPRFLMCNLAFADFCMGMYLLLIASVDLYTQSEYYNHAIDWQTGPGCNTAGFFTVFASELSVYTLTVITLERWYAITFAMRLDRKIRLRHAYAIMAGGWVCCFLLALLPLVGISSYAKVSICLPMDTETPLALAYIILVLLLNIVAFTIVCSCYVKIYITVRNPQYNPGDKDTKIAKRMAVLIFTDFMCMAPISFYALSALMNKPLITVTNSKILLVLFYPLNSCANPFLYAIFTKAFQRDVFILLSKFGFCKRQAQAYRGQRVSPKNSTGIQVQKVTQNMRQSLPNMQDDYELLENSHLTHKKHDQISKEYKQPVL
rat TSH receptor on FRTL-5 cells (rat), sequence (P21463 22-764): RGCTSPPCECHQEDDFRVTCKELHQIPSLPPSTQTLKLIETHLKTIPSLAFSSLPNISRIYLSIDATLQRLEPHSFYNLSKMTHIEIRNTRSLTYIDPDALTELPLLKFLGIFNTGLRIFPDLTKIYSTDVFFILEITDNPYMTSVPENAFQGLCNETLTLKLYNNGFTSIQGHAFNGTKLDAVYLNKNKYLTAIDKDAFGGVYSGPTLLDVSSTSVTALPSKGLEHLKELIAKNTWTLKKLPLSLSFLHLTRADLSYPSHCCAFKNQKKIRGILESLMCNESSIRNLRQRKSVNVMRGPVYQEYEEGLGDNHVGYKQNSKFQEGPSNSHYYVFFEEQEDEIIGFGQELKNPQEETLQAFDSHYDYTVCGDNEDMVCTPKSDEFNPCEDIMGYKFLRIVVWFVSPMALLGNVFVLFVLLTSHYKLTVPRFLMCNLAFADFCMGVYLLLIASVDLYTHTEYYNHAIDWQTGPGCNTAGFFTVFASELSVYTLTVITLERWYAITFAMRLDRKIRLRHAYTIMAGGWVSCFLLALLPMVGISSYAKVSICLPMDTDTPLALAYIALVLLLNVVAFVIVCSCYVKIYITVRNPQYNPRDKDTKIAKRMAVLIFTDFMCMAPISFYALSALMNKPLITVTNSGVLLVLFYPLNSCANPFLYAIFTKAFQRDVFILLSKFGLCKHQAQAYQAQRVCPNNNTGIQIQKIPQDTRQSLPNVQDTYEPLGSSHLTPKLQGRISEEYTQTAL

Substance	cAMP stimulation in JP09 cells, EC50 [1] [ng/mL]	cAMP stimulation in JP09 cells, relative potency (WT=1) [1]	EC25 of inhibition of 125I-bTSH binding [2] [ng/mL]	Progesterone synthesis in MA 10 cells, EC50 [3] [ng/mL]	Progesterone synthesis in MA 10 cells, Max [3] [%]	further results
hTSH mutant WT α / TSHβ-L69R (from UniProt P01215 25-116; P01222 21-132) (ligand)	2.75	2.4 fold (WT=1)				
hTSH mutant α-Q13K+P16K+Q20K+E14K / WT-hTSHβ (from UniProt P01215 25-116; P01222 21-132) (ligand)	0.17	39.4 fold (WT=1)	2.1			efficacy (maximal response) of cAMP stimulation, fold over WT-hTSH [1]: > 1.5 fold
hTSH mutant α-Q20K / WT-hTSHβ (from UniProt P01215 25-116; P01222 21-132) (ligand)	1.16	5.8 fold (WT=1)	21.3			
hTSH mutant α-Q13K / WT-hTSHβ (from UniProt P01215 25-116; P01222 21-132) (ligand)	1.89	3.5 fold (WT=1)	22.5			
hCG mutant α-Q13K+P16K+Q20K+E14K / WT-hCGβ (from UniProt P01215 25-116; P0DN86 21-165) (ligand)				1.65	205	
hTSH mutant WT α / hTSHβ-E63R (from UniProt P01215 25-116; P01222 21-132) (ligand)						potency, fold increase over hTSH [1]: 2 to 4 fold; potency, fold increase over hTSH [4]: 2 to 4 fold
hCG mutant α-Q50P / WT-hCGβ (from UniProt P01215 25-116; P0DN86 21-165) (ligand)				3.9	137	
hTSH mutant WT α / hTSHβ-I58R (from UniProt P01215 25-116; P01222 21-132) (ligand)						potency, fold increase over hTSH [1]: 2 to 4 fold; potency, fold increase over hTSH [4]: 2 to 4 fold
hTSH mutant WT α / hTSHβ-I58R+E63R (from UniProt P01215 25-116; P01222 21-132) (ligand)						efficacy of cAMP stimulation in CHO-hTSH cells (Fig. 2g), fold increase [1]: 1.5 fold; potency of cAMP stimulation in CHO-hTSH cells (Fig. 2g), fold over wild type hTSH [1]: 15 fold
hCG mutant α-T11K / WT-hCGβ (from UniProt P01215 25-116; P0DN86 21-165) (ligand)				2.79	156	
hTSH mutant WT α / hTSHβ-I58R+E63R+L69R (from UniProt P01215 25-116; P01222 21-132) (ligand)						efficacy of cAMP stimulation in CHO-hTSH cells (Fig. 2g), fold increase [1]: 1.7 fold; potency of cAMP stimulation in CHO-hTSH cells (Fig. 2g), fold increase [1]: 50 fold
hTSH mutant α-Q13K+P16K+Q20K / TSHβ-L69R (from UniProt P01215 25-116; P01222 21-132) (ligand)	0.19	35.3 fold (WT=1)	1.8			half-maximal stimulation of 3H-thymidine incorporation in FRTL-5 cells, fold lower concentration than WT-hTSH [4]: 27 fold
hTSH mutant α-R67K / WT-hTSHβ (from UniProt P01215 25-116; P01222 21-132) (ligand)	7.36	0.9 fold (WT=1)	62.5			
hTSH mutant α-T11K / WT-hTSHβ (from UniProt P01215 25-116; P01222 21-132) (ligand)	4.47	1.5 fold (WT=1)	68.3			
hCG mutant α-P16K / WT-hCGβ (from UniProt P01215 25-116; P0DN86 21-165) (ligand)				2.05	161	stimulation of progesterone production in MA-10 cells, fold more active than WT-hCG [3]: 4 fold; fold more active than WT-hCG in receptor binding activity [5]: 4 fold
hCG mutant α-Q13K+P16K+Q20K / WT-hCGβ (from UniProt P01215 25-116; P0DN86 21-165) (ligand)				1.58	216	
hCG mutant α-Q20K / WT-hCGβ (from UniProt P01215 25-116; P0DN86 21-165) (ligand)				2.96	134	
hTSH mutant α-P16K+F17T / WT-hTSHβ (from UniProt P01215 25-116; P01222 21-132) (ligand)	3.52	1.9 fold (WT=1)				
hTSH mutant α-P16K+Q20K / WT-hTSHβ (from UniProt P01215 25-116; P01222 21-132) (ligand)	0.37	11.8 fold (WT=1)	6.4			
hCG mutant α-P16K+Q20K / WT-hCGβ (from UniProt P01215 25-116; P0DN86 21-165) (ligand)				1.7	212	
hTSH mutant α-P16K / WT-hTSHβ (from UniProt P01215 25-116; P01222 21-132) (ligand)	1.05	6.4 fold (WT=1)	189			fold greater affinity than WT [6]: 5 fold
hCG mutant α-Q13K / WT-hCGβ (from UniProt P01215 25-116; P0DN86 21-165) (ligand)				2.46	115	
WT-hTSH (wild-type recombinant human thyroid stimulating hormone) (from UniProt P01215 25-116; P01222 21-132) (ligand)			81.3			
hTSH mutant α-Q13K+P16K+Q20K+E14K / TSHβ-L69R (from UniProt P01215 25-116; P01222 21-132) (ligand)	0.07	95.7 fold (WT=1)	1.3			efficacy (maximal response) of cAMP stimulation, fold over WT-hTSH [1]: > 1.5 fold
hTSH mutant α-Q13K+P16K+Q20K / WT-hTSHβ (from UniProt P01215 25-116; P01222 21-132) (ligand)	0.28	23.9 fold (WT=1)	2.3			half-maximal stimulation of 3H-thymidine incorporation in FRTL-5 cells, fold lower concentration than WT-hTSH [4]: 18 fold
hCG mutant α-R67K / WT-hCGβ (from UniProt P01215 25-116; P0DN86 21-165) (ligand)				4.6	145	
hTSH mutant α-Q50P / WT-hTSHβ (from UniProt P01215 25-116; P01222 21-132) (ligand)	5.54	1.2 fold (WT=1)	77.5			
